Laboratory results as given in patent publication US20210087291A1 (Hoffmann-La Roche, published 2021).
Where “and” joins values, the source holds several entries; their conditions need not be identical. Equal values may be shown once.

Experiments:
[1] = target: T1, human FolR1 ECD-AcTev-Fcknob-Avi tag + Fc hole, biotinylated monomeric Fc fusion (human, UniProt P0DOX5 223-449 = IgG part); test: SPR, IgG single injection
T1 construct: also called huFolR1; huFolR1-Fc

[2] = target: T2, cynomolgus FolR1 ECD-AcTev-Fcknob-Avi tag + Fc hole, biotinylated monomeric Fc fusion (cynomolgus, UniProt P0DOX5 223-449 = IgG part); test: SPR, IgG single injection
T2 construct: also called cyFolR1; cyno FolR1-Fc

[3] = target: T3, human FolR2 ECD-AcTev-Fcknob-Avi tag + Fc hole, biotinylated monomeric Fc fusion (human, UniProt P0DOX5 223-449 = IgG part); test: SPR, IgG single injection
T3 construct: also called huFolR2; FolR2-Fc

[4] = target: T4, human FolR3 ECD-AcTev-Fcknob-Avi tag + Fc hole, biotinylated monomeric Fc fusion (human, UniProt P0DOX5 223-449 = IgG part); test: SPR, IgG single injection
T4 construct: also called huFolR3; FolR3-Fc

[5] = target: T1, human FolR1 ECD-AcTev-Fcknob-Avi tag + …; test: SPR ProteOn, Fab analyte
Method: (§1) Immobilization of antigens (ligand): Recombinant antigens were diluted with PBST (10 mM phosphate, 150 mM sodium chloride pH 7.4, 0.005% Tween 20) to 10 μg/ml, then injected at 30 μl/minute in vertical orientation. Injection of analytes: For ‘one-shot kinetics’ measurements, injection direction was changed to horizontal orientation, two-fold dilution series of purified Fab (varying concentration ranges) were injected simultaneously along separate channels 1-5, with association times of 150 or 200 s, and dissociation times of 200 or 600 s, respectively. Buffer (PBST) was injected along the sixth channel to provide an “in-line” blank for referencing. Association rate constants (kₒₙ) and dissociation rate constants (koff) were calculated using a simple one-to-one Langmuir binding model in ProteOn Manager v3.1 software by simultaneously fitting the association and dissociation sensorgrams. The equilibrium dissociation constant (KD) was calculated as the ratio koff/kₒₙ.

[6] = target: T2, cynomolgus FolR1 ECD-AcTev-Fcknob-Avi …; test: SPR ProteOn, Fab analyte
Method: as §1

[7] = target: T3, human FolR2 ECD-AcTev-Fcknob-Avi tag + …; test: SPR ProteOn, Fab analyte
Method: as §1

[8] = target: T4, human FolR3 ECD-AcTev-Fcknob-Avi tag + …; test: SPR ProteOn, Fab analyte
Method: as §1

[9] = target: T5, murine FolR1 ECD-AcTev-Fcknob-Avitag + Fc hole, biotinylated monomeric Fc fusion (murine, UniProt P0DOX5 223-449 = IgG part); test: SPR ProteOn, Fab analyte
T5 construct: also called muFolR1; murine FolR1-Fc
Method: as §1

cynomolgus Tim3 (ELISA) [10] = target: T6, cynomolgus Tim3 (ELISA) (cynomolgus, UniProt A0A2K5U3G7 22-193); test: ELISA, cyno Tim3
T6 construct: also called Biochem Cyno; cyno TIM3
T6 sequence: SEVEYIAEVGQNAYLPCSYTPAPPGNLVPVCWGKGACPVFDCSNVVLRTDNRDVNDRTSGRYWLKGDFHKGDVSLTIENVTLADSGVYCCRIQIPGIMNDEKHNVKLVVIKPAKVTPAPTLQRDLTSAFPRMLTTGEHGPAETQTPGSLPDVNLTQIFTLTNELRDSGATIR

Tim3-ECD-His-Biotin [11] = target: T7, Tim3-ECD-His-Biotin (human, UniProt Q8TDQ0 22-202); test: ELISA, human Tim3
T7 construct: also called human Tim3 (ELISA); Biochem Human

human TIM-3 on cells [12] = target: T8, human TIM-3 on cells (human, UniProt Q8TDQ0 22-301); test: cell ELISA, CHO-Tim3
T8 construct: also called CHO-Tim3; rec CHOK1 cells expressing huTIM-3

human TIM-3 on cells [13] = target: T8, human TIM-3 on cells; test: cell-based or functional assay
[14] = target: T9, huFc fused dimeric human Tim3-ECD (human, UniProt Q8TDQ0 22-202); test: SPR Biacore, bivalent Tim3
T9 construct: also called huTim3Fc; bivalent Tim3
Method: (§2) Therefore, an anti-mouse IgG was immobilized by amine coupling to the surface of a (Biacore) CM5 sensor chip. The samples were then captured and hu/cy Tim3-ECD was bound to them. The sensor chip surface was regenerated after each analysis cycle. The equilibrium constant KD was finally gained by fitting the data to a 1:1 langmuir interaction model.
(§3) Flow cell temperature was set to 25° C. and sample compartment temperature to 12° C. The system was primed with running buffer. The samples were injected for 30 seconds with a concentration of 200 μg/ml and bound to the spots 1 and 5 of each flow cell, allowing the measurement of eight samples in parallel. Then a complete set of different (monomeric cyno, monomeric human and huFc fused dimeric human Tim3-ECD) concentrations (s. Table X) was injected over each sample for 240 s followed by a dissociation time of 30/1800 s (s. Table 1). Each analysis cycle (sample capture, spot 1 and 5—Tim3 ECD injection) was then regenerated with a 30 seconds long injection of Glycine-HCl pH 1.7. The flow rate was set to 30 μl/min for the whole run. Finally, the double referenced data was fitted to a 1:1 langmuir interaction model with the Biacore B4000 Evaluation Software.

Tim3-ECD-His-Biotin [15] = target: T7, Tim3-ECD-His-Biotin; test: ELISA on Tim3-ECD-His-Biotin
Method: After washing (3×90 μl/well with PBST-buffer) 25 μl aTim3 samples or diluted (1:2 steps) reference antibody aTim3 F38-2E2 (Biolegend) was added and incubated 1 h at RT. After washing (3×90 μl/well with PBST-buffer) 25 μl/well sheep-anti-mouse-POD (GE NA9310V) was added in 1:9000 dilution and incubated at RT for 1 h while shaking at 400 rpm rotation. After washing (4×90 μl/well with PBST-buffer) 25 μl/well TMB substrate (Calbiochem, #CL07) was added and incubated until OD 1.5-2.5. Then the reaction was stopped by addition of 25 μl/well 1N HCL-solution.

monomeric human Tim3-ECD [16] = target: T10, monomeric human Tim3-ECD (human, UniProt Q8TDQ0 22-202); test: SPR Biacore, monovalent Tim3
T10 construct: also called huTim3
Method: as §2, §3

human TIM-3 on cells [17] = target: T8, human TIM-3 on cells; test: cell ELISA, CHO-K1 expressing human Tim3
Method: Then the reaction was stopped by addition of 25 μl/well 1N HCL-solution.

[18] = target: T11, cynomolgus TIM-3 on isolated cyno CD14+ monocytes (cynomolgus); test: flow cytometry, cyno CD14+ monocytes cyno1
T11 construct: whole, on cells
From the text: (§4) CD14+ Monocytes were isolated from cynomolgus monkey anticoagulated peripheral blood (Covance) by density gradient centrifugation using Ficoll-Paque (GE Healthcare) (see General Protocols in the User Manuals or visit www.miltenyibiotec.com/protocols) and subsequent positive selection via NHP CD14 MicroBeads. First the CD14+ cells are magnetically labeled with CD14 MicroBeads. Then the cell suspension is loaded onto a MACS® Column which is placed in the magnetic field of a MACS Separator. The magnetically labeled CD14+ cells are retained in the column. The unlabeled cells run through, this cell fraction is depleted of CD14+ cells. After removal of the column from the magnetic field, the magnetically retained CD14+ cells can be eluted as the positively selected cell fraction. After centrifugation at 200×g for 10 min at room temperature the monocytes were harvested and used directly in binding assay or resuspended in freezing medium (10% DMSO, 90% FCS) at 1.0E+07 cells/ml and stored in liquid nitrogen.
(§5) 1×10⁵ CD14+ isolated cyno monocytes (50 μl/well) were put into 98 well-v bottom MTP in fresh culture medium and incubated with Redimune® NF Liquid for 15 min at RT to block unspecific binding. Than 50 μl/well of Alexa488 labeled anti-TIM3 (10 μg/ml in cell culture medium) were added and incubated for 1 h at 4° C. After washing and centrifugation MFI signals of stained cells were analyzed by BD Biosciences FACSCanto flow cytometer.

[19] = target: T11, cynomolgus TIM-3 on isolated cyno CD14+ …; test: flow cytometry, cyno CD14+ monocytes cyno2
From the text: as §4, §5

[20] = target: T11, cynomolgus TIM-3 on isolated cyno CD14+ …; test: flow cytometry, cyno CD14+ monocytes cyno3
From the text: as §4, §5

human TIM-3 on cells [21] = target: T8, human TIM-3 on cells; test: flow cytometry, human CD14+ monocytes donor1
human TIM-3 on cells [22] = target: T8, human TIM-3 on cells; test: flow cytometry, human CD14+ monocytes donor2
human TIM-3 on cells [23] = target: T8, human TIM-3 on cells; test: flow cytometry, human CD14+ monocytes donor3
monomeric human Tim3-ECD [24] = target: T10, monomeric human Tim3-ECD; test: SPR Biacore, antibody captured by anti-mouse IgG
Method: as §2, §3

[25] = target: T9, huFc fused dimeric human Tim3-ECD; test: SPR Biacore, antibody captured by anti-mouse IgG
Method: as §2, §3

monomeric cyno Tim3-ECD = target: T12, monomeric cyno Tim3-ECD (cynomolgus, UniProt A0A2K5U3G7 22-195); test: SPR Biacore, antibody captured by anti-mouse IgG
T12 construct: extracellular domain; also called cyTim3
T12 sequence: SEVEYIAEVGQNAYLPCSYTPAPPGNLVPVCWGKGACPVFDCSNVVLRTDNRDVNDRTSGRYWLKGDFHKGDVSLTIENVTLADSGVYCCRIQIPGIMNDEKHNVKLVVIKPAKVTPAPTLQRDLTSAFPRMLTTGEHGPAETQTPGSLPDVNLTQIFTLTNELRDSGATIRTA
Method: as §2, §3

cynomolgus Tim3 (ELISA) [26] = target: T6, cynomolgus Tim3 (ELISA); test: ELISA, cyno Tim3; EC50 relative to the sample's max value
Tim3-ECD-His-Biotin [27] = target: T7, Tim3-ECD-His-Biotin; test: ELISA, human Tim3; EC50 relative to the sample's max value
human TIM-3 on cells [28] = target: T8, human TIM-3 on cells; test: cell ELISA, CHO-Tim3; EC50 relative to the sample's max value
human TIM-3 on cells [29] = target: T8, human TIM-3 on cells; test: cell-based or functional assay; remark: listed apart in the source

Row | Binder | binding result [7] | binding result [8] | IFN-gamma release in MLR at 1 µg/ml, % of IL-2 control (human TIM-3 on cells [13]) | IFN-gamma release in MLR at 10 µg/ml, % of IL-2 control (human TIM-3 on cells [13]) | MFI [18] | MFI [19] | MFI [20] | specific binding MFI (human TIM-3 on cells [21]) | specific binding MFI (human TIM-3 on cells [22]) | specific binding MFI (human TIM-3 on cells [23]) | Kd (monomeric human Tim3-ECD [24]) | Kd (monomeric cyno Tim3-ECD) | other results
1 | 14E4 IgG (antibody, V domains shown, human IgG1) VH: not shown VL: EIVLTQSPGTLSLSPGERATLSCRASQSVSSSYLAWYQQKPGQAPRLLIYGASSRATGIPDRFSGSGSGTDSTLTISRLEPEDFAVYYCQQPTSSPITFGQGTKVEIK | – | – | – | – | – | – | – | – | – | – | – | – | binding result [1]: no binding (tested: 500 nM); binding result [2]: no binding (tested: 500 nM); binding result [3]: no binding (tested: 500 nM); binding result [4]: no binding (tested: 500 nM)
2 | 14E4 Fab (Fab, V domains shown) VH: not shown VL: EIVLTQSPGTLSLSPGERATLSCRASQSVSSSYLAWYQQKPGQAPRLLIYGASSRATGIPDRFSGSGSGTDSTLTISRLEPEDFAVYYCQQPTSSPITFGQGTKVEIK | no binding | no binding | – | – | – | – | – | – | – | – | – | – | binding result [5]: no binding; binding result [6]: no binding
3 | 9D11 Fab (Fab, V domains shown) VH: QVQLVQSGAEVKKPGASVKVSCKASGYTFTSYYMHWVRQAPGQGLEWMGIINPSGGPTSYAQKFQGRVTMTRDTSTSTVYMELSSLRSEDTAVYYCARGDFAWLDYWGQGTLVTVSS VL: not shown | no binding | no binding | – | – | – | – | – | – | – | – | – | – | Kd [5]: 8.64 nM; Kd [6]: 5.29 nM; binding result [9]: no binding
4 | Tim3_0016 variant (Tim3_0018) (antibody, V domains shown, also called TIM3-0016 variant (0018); aTim3 0018) VH: QVTLKESGPGILQPSQTLSLTCSFSGFSLSTSGMSVGWIRQPSGKGLEWLAHIWLNDDVFFNPALKRRLTISKDTSNNQVFLQIASVVTADTATYYCVRANGYLYALDYWGQGISVTVSS VL: QIVLTQSPAIMSASPGQKVTITCSASSSVNYTQWYQQKLGSSPKLWIYDAFKLAPGVPARFSGSGTGTSYSLTISSMEAEDAASYFCHQWSSYPWTFGGGTKLEIK | – | – | 12% | 30% | 301 MFI | 480 MFI | 417 MFI | 2330 MFI | 1820 MFI | 1940 MFI | 3.4 nM | 41.9 nM | inflexion point (cynomolgus Tim3 (ELISA) [10]): 14.6 ng/mL; inflexion point (Tim3-ECD-His-Biotin [11]): 15.3 ng/mL; inflexion point (human TIM-3 on cells [12]): 29.4 ng/mL; IFN-gamma release in MLR at 40 µg/ml, % of IL-2 control (human TIM-3 on cells [13]): 36%; Kd [14]: 1.1 nM; EC50 (Tim3-ECD-His-Biotin [15]): 0.56 nM and 0.094 µg/mL; Kd (monomeric human Tim3-ECD [16]): 3.4 nM; EC50 (human TIM-3 on cells [17]): 0.52 nM and 0.087 µg/mL; Kd [25]: 1.11 nM; EC50 (cynomolgus Tim3 (ELISA) [26]): 0.0146 µg/mL; EC50 (Tim3-ECD-His-Biotin [27]): 0.0161 µg/mL; EC50 (human TIM-3 on cells [28]): 0.0264 µg/mL
5 | Tim3_0016 (antibody, V domains shown, also called clone 0016) VH: QVTLKESGPGILQPSQTLRLTCSFSGFSLSTSGMSVGWIRQPSGKGLEWLAHIWLNDDVFFNPALKSRLTISKDTSNNQVFLQIASVVTADTATYYCVRANGYLYALDYWGQGTSVTVSS VL: QIVLTQSPAIMSASPGQKVTITCSASSSVNYTQWYQQKLGSSPKLWIYDAFKLAPGVPARFSGSGTGTSYSLTISSMEAEDAASYFCHQWSSYPWTFGGGTKLEIK | – | – | 7% | 22% | 157 MFI | 177 MFI | 187 MFI | 2120 MFI | 1630 MFI | 1690 MFI | – | 21.6 nM | –
6 | Tim3_0022 (antibody, V domains shown) VH: EVQLQESGPSLVKPSQTLSLTCSVTGDSIASAYWNWIRKFPGNKLEYMGYINYSGSTYYNPSLKSRISITRDTSQNQYYLQLNSVTTEDTATYYCVTGDYFDYWGRGTTLTVSS VL: DIQMTQSPSSLSAYLGGKVTITCKARQDVRKNIGWYQHKPGKGPRLLIWYTSTLQSGIPSRFSGSGSGRDYSFNINNLEPEDIATYYCLQYDNLPFTFGTGTKLEIR | – | – | – | – | 115 MFI | 134 MFI | 138 MFI | 1470 MFI | 1110 MFI | 1240 MFI | 126 nM | 28.4 nM | –
7 | Tim3_0021 (antibody, V domains shown) VH: QVQLQQSGPQLVRPGASVQISCKASGYSFTSYLLHWLKQRPGQGLEWIGMIDPSDSETRLNQKFKDKATLTVDKSSSTAYMQLSSPTSEDSAVYYCARDGYYAWYYFDCWGQGTTLTVSS VL: DIVLTQSPATLSVTPGDRVSLSCRASQSIGNNLHWYQQKSHESPRLLIKYASHSISGIPSKFSGTGSGTDFTLSFNSVETEDFGMYFCQQSNSWPLTFGAGTKLELK | – | – | 101% | 108% | 348 MFI | 473 MFI | 399 MFI | 1130 MFI | 951 MFI | 1200 MFI | 204 nM | – | IFN-gamma release in MLR at 40 µg/ml, % of IL-2 control (human TIM-3 on cells [13]): 112%; internalization at 30 Min, RPMI-8226 (human TIM-3 on cells [29]): 70%; internalization at 60 Min, RPMI-8226 (human TIM-3 on cells [29]): 75%; internalization at 120 Min, RPMI-8226 (human TIM-3 on cells [29]): 74%; internalization at 240 Min, RPMI-8226 (human TIM-3 on cells [29]): 78%; internalization at 26 h, RPMI-8226 (human TIM-3 on cells [29]): 77%; Kd [14]: 4.1 nM; EC50 (Tim3-ECD-His-Biotin [15]): 0.047 µg/mL; Kd (monomeric human Tim3-ECD [16]): 204 nM; EC50 (human TIM-3 on cells [17]): 0.073 µg/mL; Kd [25]: 4.07 nM
8 | 36F2 Fab (Fab, V domains shown) VH: QVQLVQSGAEVKKPGASVKVSCKASGYTFTSYYMHWVRQAPGQGLEWMGIINPSGGSTSYAQKFQGRVTMTHDTSTSTVYMELSSLRSEDTAVYYCARSFFTGFHLDYWGQGTLVTVSS VL: EIVLTQSPGTLSLSPGERATLSCRASQSVSSSYLAWYQQKPGQAPRLLIYGASSRATGIPDRFSGSGSGTDFTLTISRLEPEDFAVYYCQQYTNEHYYTFGQGTKVEIK | no binding | no binding | – | – | – | – | – | – | – | – | – | – | Kd [5]: 1810 nM; Kd [6]: 1640 nM; Kd [9]: 737 nM
